From patent US20190112365A1 (EISAI R AND D MANAGEMENT, published 2019) come the findings set out here.

Where two headings read alike, the source gives them in different places.

The target in experiment [1] is T1, P301S mutant human 2N4R Tau, recombinant full length (human, UniProt P10636 2-758).
T1 construct: The equivalent P301S mutant of 2N4R Tau; also called P301S-2N4R Tau; P301S Tau
Put plainly: SPR; KD on P301S-2N4R Tau against KD on wild type 2N4R Tau. On the procedure:
(§1) Purified antibodies from hybridomas were captured by protein A/G immobilized on a CM5 sensor chip (GE Healthcare). The wild type and P301S Tau proteins were then injected onto the sensor chip at five different concentrations and the affinity (equilibrium dissociation constant, KD) was calculated according to the manufacturer's instruction.

In experiment [2] the target is T2, Peptide antigen CNIKHVPGGGSVQIVYKPVD (human, conjugated to BSA in the ELISA (to KLH via the N-terminal cysteine in the immunogen)).
T2 construct: also called original immunization peptide; immunizing Tau peptide
T2 peptide: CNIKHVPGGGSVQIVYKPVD
Put plainly: ELISA screening of hybridoma clones. The procedure: One month after the boost immunization, antisera were collected from the mice and antibody titers assessed by ELISA to measure immunoreactivity against the original immunizing Tau peptide and both 2N4R and 1N3R recombinant Tau proteins. Briefly, either 150 ng of Peptide antigen conjugated to BSA or 50 ng of 2N4R or 1N3R recombinant Tau protein (Enzo Life Sciences, cat. no's BML-SE321 and BML-SE323 respectively) were used to coat each well of a 96-well plate (Costar cat. no. 2797) in 10 mM phosphate buffer, pH 7.0 at 37° C. for 1 hour. Plates were blocked in a final concentration of 1% BSA diluted in PBS at room temperature for 30 minutes. […] Following additional wash steps, antibody binding was detected by addition of 3,3′,5,5′-Tetramethylbenzidine (TMB) substrate. The enzymatic reaction was stopped with an equal volume of 2M H₂SO₄ and the well optical density was determined using a platereader at wavelength 450 nm.
Once mice with a high antibody titer had been determined, cells were isolated from the medial iliac lymph nodes and fused using polyethylene glycol with mouse myeloma SP2 cells to generate hybridomas. […] To give an approximation of relative binding, culture supernatant that was positive in the peptide ELISA and either recombinant protein, 2N4R or 1N3R, or both, were then evaluated in a competitive ELISA system. […]
In general terms: An ELISA detects its analyte on a solid surface through an enzyme-linked reagent.

Experiment [3] addresses T3, Human Tau 2N4R, wild type, recombinant full length (human, UniProt P10636 2-758).
T3 construct: Full length 2N4R isoform; monomer in SPR and ELISA; heparin-induced aggregates or seeds in the functional assays; also called Tau441; Tau-441
The experiment can be described thus: SPR BIAcore, mAb captured by anti-mouse IgG, Tau flowed, 1:1 Langmuir. On the procedure: (§2) All experiments were performed using a BIAcore™ T-100 instrument (GE Healthcare). 10 μL anti-human IgG (monoclonal mouse anti-human Fc) from human antibody capture kit (GE Healthcare) was diluted to 25 μL/mL in 200 μL final immobilization buffer (10 mM sodium acetate, pH 5.0). The flow rate was set to 5 μL/min, flowpath 1. Fifty μL N-hydroxysuccinamide (NETS) and 50 μL 1-ethyl-3-(3-dimethylaminopropyl) carbidiimide (EDC) were mixed and injected for 420 sec to activate the CM5 chip surface. The diluted antibody was injected for 360 seconds followed by 1 M ethanolamine for 420 seconds. The flowpath was then switched to flowpath 2. A new EDC/NHS mixture was prepared and the procedure was repeated for flow cell 2. The surface was conditioned by 2 injections of 30 sec using flowpath 1, 2 at 30 μL/min of 3M MgCl₂. For the anti-mouse surface, 10 μL anti-mouse IgG (polyclonal rabbit anti-mouse IgG) from mouse antibody capture kit (GE Healthcare) was diluted to 30 μL/mL in 324 μL final immobilization buffer (10 mM sodium acetate, pH 5.0). The flow rate was set to 5 μL/min, flowpath 3. Fifty μL NHS and 50 μL EDC were mixed and injected for 420 sec to activate the chip surface. The diluted antibody was injected for 420 sec. 1 M ethanolamine was injected for 420 sec. Flow path was switched to flowpath 4. A new EDC/NHS mixture was prepared and the procedure was repeated for flow cell 4. The surface was conditioned by 2 injections of 30 sec using flowpath 3, 4 at 30 μL/min of 10 mM glycine, pH 1.7.
(§3) Binding of humanized and mouse antibodies were analyzed by BIAcore™ to determine their relative association rates (ka), dissociation rates (kd), and equilibrium binding constants (KD). Anti-mouse or anti-human antibodies were immobilized on a CM5 chip and sample mAbs were captured on the chip. 2N4R Tau was flowed over the chip and binding observed. The binding constants kₐ, kd, and KD were determined using a 1:1 Langmuir fitting model. Both 7G6-HCzu12-based mAbs had similar kₐ and kd values (Table 8). However, the kₐ of 7G6-HCzu11 was decreased, though the kd was unaffected. Therefore, human residues in the Vh3 framework impact binding to Tau.
For orientation: Surface plasmon resonance follows binding to a sensor surface in real time, without labels.

Experiment [4] concerns the target T3, Human Tau 2N4R, wild type, recombinant …. The experiment is described as above. The procedure:
as §2, §3
The source holds these as a separate data set.

Experiment [5] has the same target. The experiment can be described thus: SPR BIAcore T100, mAb captured by protein A/G, Tau injected. The procedure:
(§4) Kinetic analysis of the interaction of the anti-Tau mouse monoclonal antibodies generated in Example 1 with human wild type Tau (2N4R) and the equivalent P301S mutant Tau protein was conducted using a BIAcore™ T100 instrument. Recombinant human full length Tau proteins were expressed in E. coli and then purified by Cellufine™ phosphate affinity chromatography followed by ammonium sulfate precipitation and reverse phase HPLC chromatography.
as §1

The target of experiment [6] is T1, P301S mutant human 2N4R Tau, …. Described as above. On the procedure: as §4, §1

T3 sequence (P10636 other isoform, or with tags, fused parts or gaps limits assumed): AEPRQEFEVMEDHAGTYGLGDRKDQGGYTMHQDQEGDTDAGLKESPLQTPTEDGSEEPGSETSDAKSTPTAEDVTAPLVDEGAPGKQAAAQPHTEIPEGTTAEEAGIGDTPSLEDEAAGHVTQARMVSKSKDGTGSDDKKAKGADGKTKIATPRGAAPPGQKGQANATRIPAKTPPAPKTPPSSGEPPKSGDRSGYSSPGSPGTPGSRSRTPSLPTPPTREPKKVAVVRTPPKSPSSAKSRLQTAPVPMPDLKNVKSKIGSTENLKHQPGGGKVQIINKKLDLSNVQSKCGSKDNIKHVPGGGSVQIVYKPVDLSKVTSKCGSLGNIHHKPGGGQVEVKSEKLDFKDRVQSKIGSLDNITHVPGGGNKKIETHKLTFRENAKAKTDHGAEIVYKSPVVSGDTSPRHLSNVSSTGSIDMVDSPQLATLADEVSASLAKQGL
T1 sequence (P10636 other isoform, or with tags, fused parts or gaps P301S P301S limits assumed): as the sequence (P10636 other isoform, or with tags, fused parts or gaps limits assumed) above, with P300S counted along it

B1: murine 7G6 antibody (antibody, mouse IgG2b, V domains shown)
VH: QVQLLQPGAELVKPGASVIMSCKASGYTFTTYWITWVKQRPGQGLEWIGDIYPGSSICNYNEKFKSKATLTVDTSSSTAYMQLNSLTSEDSAVYYCAREDGYDAWFAYWGQGTLVTVSA
VL: DVLMTQTPLSLPVSLGDQASISCRSSQSILHSNGNTYLEWYLQKPGQSPKLLICKVSNRFSGVPDRFSGSGSGTDFTLKISRVEAEDLGVYYCFQGSHVPFTFGSGTKLEIK
notes: Mouse IgG2b, kappa, purified from hybridoma; also called ms7G6; mouse 7G6
For orientation: Kd means the constant that tells how readily two partners part at equilibrium. The koff is the first-order rate constant of dissociation. One may read the kon as the rate constant with which the complex forms. Regarding B1, in experiment [1], the Fold difference was found to be 11 fold. In addition, in experiment [2], the binding result was “binds”. For the same molecule, the Kd amounted to 3.31 nM in experiment [3], 3.31 nM in experiment [4], 0.052 nM in experiment [5] and 0.57 nM in experiment [6]. The koff in experiment [3] and in experiment [4] was 0.00153 s⁻¹ in each case. Moreover, the kon in experiment [3] and in experiment [4] was 464000 M⁻¹ s⁻¹ in each case.
